According to PMC6550530:

B1: varA RNA oligonucleotide (ssRNA)
RNA: AAGUGUGGAGAUACAAGUUUGAUUAGUGUUUUCCUUGUAGAUGAUCACGAGCUGGUUCGCACAGGGAUACGACGUAUUAUUGAAGACGUCCGUGGAAUGAAAGUAGCAGGGGAAGCUGAC
B2: atpI RNA oligonucleotide (ssRNA)
RNA: AAAAUUGUAACUUUUUGCGGUGUUUUCAUUGCAAUCAGUUGAUGCCACCGUAUAAUUUUCGCCAAUUUCCCAGUCCGAAAAAGCGGUUCGAGCUGUGGUGAUUACUAGAGGUAAGAAUAC

Tests used:
[1] = biological target: T1, CsrA (Vibrio cholerae, UniProt Q9KUH3 1-65); assay: EMSA; shift seen at 1.6 nM CsrA, increasing at 8 and 40 nM; LightShift chemiluminescent RNA EMSA kit per manufacturer, 10 ul volume; 12% nondenaturing PAGE; buffer, salt, pH and temperature not stated; conditions: protein: recombinant; tags: N-terminal His-TEV tag removed by TEV protease; chain copies: 2; label: 5' biotin
[2] = biological target: T1, CsrA; assay: EMSA; CsrA up to 40 nM; LightShift chemiluminescent RNA EMSA kit per manufacturer, 10 ul volume; 12% nondenaturing PAGE; buffer, salt, pH and temperature not stated; conditions: protein: recombinant; tags: N-terminal His-TEV tag removed by TEV protease; chain copies: 2; label: 5' biotin

T1 sequence (Q9KUH3 whole entry): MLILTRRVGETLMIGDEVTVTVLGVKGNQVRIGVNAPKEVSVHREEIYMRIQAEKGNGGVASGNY

Binder | binding result [1] | binding result [2]
B1 | binds | –
B2 | – | no binding
